# Test results from publication PMC7144947.
# Where two headings read alike, the source gives them in different places.
# B1: Prox1 DNA unlabelled (dsDNA)
# DNA 1: CTAGCATTGTCTGGG
# DNA 2: CCCAGACAATGCTAG
# B2: Sox2/Prox1 DNA (dsDNA)
# DNA 1: CTAGCATTGTCTGGG
# DNA 2: CCCAGACAATGCTAG
# B3: 12th-24 RNA (structured_RNA)
# RNA: CGCGGCUUGCCCUAUCGCGGUGUAG
# B4: Dnmt3b RNA (ssRNA)
# RNA: CAGCUUUUCCCUGUAGUCAUGAAUG
# B5: 12th-24 RNA unlabelled (structured_RNA)
# RNA: CGCGGCUUGCCCUAUCGCGGUGUAG
# B6: 12th-24 Mut3 (ssRNA)
# RNA: CGCGGCUUGCCCUAUUAUAGUGUAG
# B7: Dicer1 RNA (ssRNA)
# RNA: CCUGCAGCUCAUGACCCCUGCUUCC
# B8: 12th-15 RNA (ssRNA)
# RNA: GCGGCAAGCCCAUACUCGCGUUCAA
# Assays:
# Sox2-HMG = Sox2-HMG (Mus musculus, UniProt P48432 41-120); assay: competition
# Sox2-ΔRBM [1] = target: T1, Sox2-ΔRBM (Mus musculus, UniProt P48432 1-319, del121-180); assay: competition
# Sox2-ΔHMG [2] = target: T2, Sox2-ΔHMG (Mus musculus, UniProt P48432 1-319, del41-118); assay: competition
# Sox11 = Sox11 (UniProt Q7M6Y2 1-395); assay: EMSA
# Chain of Sox11 (Q7M6Y2 whole entry): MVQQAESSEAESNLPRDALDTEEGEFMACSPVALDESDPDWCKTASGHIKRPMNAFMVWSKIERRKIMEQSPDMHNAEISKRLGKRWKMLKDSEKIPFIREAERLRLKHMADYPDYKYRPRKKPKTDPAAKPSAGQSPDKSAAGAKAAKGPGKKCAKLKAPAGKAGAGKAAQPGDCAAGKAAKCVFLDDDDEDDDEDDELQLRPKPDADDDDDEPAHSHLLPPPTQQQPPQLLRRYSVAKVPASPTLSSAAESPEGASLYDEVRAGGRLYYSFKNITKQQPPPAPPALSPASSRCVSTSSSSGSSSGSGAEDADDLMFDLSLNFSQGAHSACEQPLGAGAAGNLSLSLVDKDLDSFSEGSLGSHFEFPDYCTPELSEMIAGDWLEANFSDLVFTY
# Sox2 [3] = target: T3, Sox2 (Mus musculus, UniProt P48432 1-319); assay: EMSA
# Sox2-ΔRBM [4] = target: T1, Sox2-ΔRBM; assay: EMSA
# Sox2-ΔHMG [5] = target: T2, Sox2-ΔHMG; assay: EMSA
# Sox2-ΔRBM [6] = target: T1, Sox2-ΔRBM; assay: EMSA; remark: listed apart in the source
# Sox2(1-120) = Sox2(1-120) (Mus musculus, UniProt P48432 1-120); assay: EMSA
# Sox2(1-180) = Sox2(1-180) (Mus musculus, UniProt P48432 1-180); assay: EMSA
# Sox2(180-319) = Sox2(180-319) (Mus musculus, UniProt P48432 180-319); assay: EMSA
# Sox1 = Sox1 (Mus musculus, UniProt P53783 1-391); assay: EMSA
# Chain of Sox1 (P53783 whole entry): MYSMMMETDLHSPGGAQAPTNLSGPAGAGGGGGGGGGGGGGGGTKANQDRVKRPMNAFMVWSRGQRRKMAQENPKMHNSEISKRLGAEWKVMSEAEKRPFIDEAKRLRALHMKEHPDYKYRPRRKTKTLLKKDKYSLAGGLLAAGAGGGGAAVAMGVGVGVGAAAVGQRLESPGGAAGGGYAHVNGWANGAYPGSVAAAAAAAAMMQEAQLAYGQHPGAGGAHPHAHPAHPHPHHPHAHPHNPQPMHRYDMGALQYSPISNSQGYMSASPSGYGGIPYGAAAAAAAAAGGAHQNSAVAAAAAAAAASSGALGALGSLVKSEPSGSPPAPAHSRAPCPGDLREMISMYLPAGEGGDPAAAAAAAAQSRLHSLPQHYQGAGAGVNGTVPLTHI
# Sox2 [7] = target: T3, Sox2; assay: EMSA; remark: listed apart in the source
# Sox2(120-319) = Sox2(120-319) (Mus musculus, UniProt P48432 120-319); assay: EMSA
# Sox2-ΔHMG [8] = target: T2, Sox2-ΔHMG; assay: competition; remark: listed apart in the source
# Sox2-ΔRBM [9] = target: T1, Sox2-ΔRBM; assay: in vitro RIP
binder,measurement,setting,value
B1,binding result,Sox2-HMG,binds
same,binding result,Sox2-ΔRBM [1],binds
same,binding result,Sox2-ΔHMG [2],no binding
B2,binding result,Sox11,binds
same,binding result,Sox2 [3],binds
same,binding result,Sox2-ΔRBM [4],binds
B3,binding result,Sox2-ΔHMG [5],binds
same,binding result,Sox2-ΔRBM [6],binds
same,binding result,Sox2(1-120),binds
same,binding result,Sox2(1-180),binds
same,binding result,Sox2(180-319),no binding
same,binding result,Sox1,binds
same,binding result,Sox2 [7],binds
B4,binding result,Sox2-ΔHMG [5],binds
same,binding result,Sox2(120-319),binds
same,binding result,Sox11,no binding
same,binding result,Sox2(180-319),no binding
B5,binding result,Sox2-HMG,no binding
same,binding result,Sox2-ΔHMG [8],binds
same,binding result,Sox2-ΔRBM [1],binds
B6,binding result,Sox2-ΔRBM [9],binds
B7,binding result,Sox2-ΔHMG [5],binds
same,binding result,Sox2(120-319),binds
same,binding result,Sox11,no binding
same,binding result,Sox2(180-319),no binding
B8,binding result,Sox11,no binding
same,binding result,Sox2 [7],binds
